Where no end group is shown, it is not given here.
Legend:
[1] = target: T1, H2686; experiment: peptide mix on immobilised double-mutant resin, LC/MS of load, flow through and eluate (FIG. 19A)
T1 construct: Non-glycosylated peptide
T1 peptide: YIYGSFK

[2] = target: T2, H8390; experiment: as above
T2 construct: Non-glycosylated peptide
T2 peptide: FLPLILGKLVKGLL

[3] = target: T3, H4062; experiment: as above
T3 construct: Non-glycosylated peptide
T3 peptide: KKLVFFA

[4] = target: T4, glycodrosocin (GD) (not fully specified (residue 11)); experiment: as above
T4 construct: also called glycodrosocin peptide
T4 peptide: GKPRPYSPRPTSHPRPIRV

[5] = target: T5, TNFαR (the TNFα binding part of etanercept) (human, UniProt P20333 23-257, O-glycosylated; pretreated with sialidase mixture in the binding assay); experiment: protein mix on immobilised LSH205A/E206A resin, SDS-PAGE (FIG. 11B)
T5 construct: also called TNFaR2; TNFaR
T5 sequence (looked up): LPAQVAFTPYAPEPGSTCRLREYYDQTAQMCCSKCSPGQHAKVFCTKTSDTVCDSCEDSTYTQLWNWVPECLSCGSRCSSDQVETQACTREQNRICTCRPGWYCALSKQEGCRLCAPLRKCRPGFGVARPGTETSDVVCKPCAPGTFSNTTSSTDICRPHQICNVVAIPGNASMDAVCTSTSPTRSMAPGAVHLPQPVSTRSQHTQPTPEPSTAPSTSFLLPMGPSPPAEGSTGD

[6] = target: T6, BSA (bovine serum albumin) (bovine, UniProt P02769 25-607); experiment: as above
T6 construct: Non-glycosylated control protein
T6 sequence (P02769 25-607 limits assumed): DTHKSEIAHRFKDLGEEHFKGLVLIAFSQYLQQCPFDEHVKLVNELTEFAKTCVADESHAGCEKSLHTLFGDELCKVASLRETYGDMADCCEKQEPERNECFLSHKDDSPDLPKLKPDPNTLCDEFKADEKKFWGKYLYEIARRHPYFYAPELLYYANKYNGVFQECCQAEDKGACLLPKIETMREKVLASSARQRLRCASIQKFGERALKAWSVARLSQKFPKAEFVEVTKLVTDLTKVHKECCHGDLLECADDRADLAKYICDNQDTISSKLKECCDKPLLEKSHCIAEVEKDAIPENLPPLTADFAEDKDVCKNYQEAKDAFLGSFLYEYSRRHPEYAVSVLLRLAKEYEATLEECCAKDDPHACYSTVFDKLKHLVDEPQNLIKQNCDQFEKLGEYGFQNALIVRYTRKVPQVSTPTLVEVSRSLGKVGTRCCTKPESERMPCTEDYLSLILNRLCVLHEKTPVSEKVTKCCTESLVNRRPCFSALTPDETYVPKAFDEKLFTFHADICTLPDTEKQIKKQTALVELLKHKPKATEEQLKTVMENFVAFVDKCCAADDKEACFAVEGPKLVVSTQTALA

B1: LSH205A/E206A (designed binder)
chain: MEVTVPDALKDRIALKKTARQLNIVYFLGSDTEPVPDYERRLSELLLYLQQFYGKEMQRHGYGARSFGLDIKSPGRVNIIEYKAKNPAAHYPYENGGGWKAAQELDEFFKAHPDRKKSQHTLIIMPTWNDEKNGPDNPGGVPFYGMGRNCFALDYPAFDIKHLGQKTREGRLLTKWYGGMAAALGHGLNLPHNHQTASDGKKYGTALMGSGNYTFGTSPTFLTPASCALLDACEVFSVTPSQQFYEGKPEVEVGDVAISFKGDQILVSGNYKSPQTVKALNVYIQDPPYAVNQDYDAVSFSRRLGKKSGKFSMKIDKKELEGLNNNEFRISLMFILANGLHMQKHFTFHWDALQDYRDGSKSGSGHHHHHH
notes: also called LSHE206AA; Amuc1119H205A/E206A
[1]
  binding result: no binding
[2]
  binding result: no binding
[3]
  binding result: no binding
[4]
  binding result: binds
[5]
  binding result: binds
[6]
  binding result: no binding

— patent US20230212543A1 (GENOVIS, published 2023)
